# Laboratory results from US20220324953A1 (JIANGSU HENGRUI MEDICINE, published 2022).
# Positions count from the first letter of the chain named.
# B1: Hu147-33wk (antibody, human IgG1, kappa, V domains shown)
# VH: EVQLVESGGGLVQPGGSLRLSCAASGFSFNTYAMNWVRQAPGKGLEWVARIRTKSNNYATYYADSVKDRFTISRDDSESSLYLQMNSLKTEDTAVYYCVETGFAYWDQGTLVTVSS
# VL: EIVLTQSPATLSLSPGERATLSCSASSSVSYMHWFQQKPGQSPKLWIYSTSNLASGVPARFSGSGSGTDYTLTISSLEPEDFAVYYCQQRSSYPLTFGQGTKLEIKR
# B2: Hu164-77wl (antibody, human IgG1, lambda, V domains shown)
# VH: EVQLQESGPGLVKPSQTLSLTCTVSGFSISTFGVHWIRQHPGKGLEWIGVIWRRGGTDYNAAFMSRVTISKDTSKNQVSLKLSSVTAADTAVYYCARDGGFDYWGQGTTVTVSS
# VL: ETVVTQEPSLTVSPGGTVTLTCRSSIGAVTTSNYANWVQQKPGQAFRGLIGGTSNRAPWTPARFSGSLLGGKAALTLSGVQPEDEAEYYCALWYSTHYVFGGGTKLTVLG
# B3: Hu164-87wl (antibody, human IgG1, lambda, V domains shown)
# VH: B2 VH with I48L, V67L, L80F
# VL: B2 VL
# B4: Hu164-68wl (antibody, human IgG1, lambda, V domains shown)
# VH: EVTLKESGPVLVKPTETLTLTCTVSGFSLSTFGVHWIRQPPGKGLEWLGVIWRRGGTDYNAAFMSRLTISKDTSKSQVVFTMTNMDPVDTATYYCARDGGFDYWGQGTTVTVSS
# VL: ETVVTQEPSFSVSPGGTVTLTCRSSIGAVTTSNYANWVQQTPGQAFRGLIGGTSNRAPGVPDRFSGSILGNKAALTITGAQADDESDYYCALWYSTHYVFGGGTKLTVLG
# B5: Hu164-69wl (antibody, human IgG1, lambda, V domains shown)
# VH: B4 VH
# VL: ESVVTQPPSVSGAPGQRVTISCRSSIGAVTTSNYANWVQQLPGTAFKGLIGGTSNRAPGVPDRFSGSKSGTSASLAITGLQAEDEADYYCALWYSTHYVFGGGTKLTVLG
# B6: Hu147-12wk (antibody, human IgG1, kappa, V domains shown)
# VH: B1 VH with S28T, N30S, A49G, E78K, S79N
# VL: B1 VL with W46L, V57I
# B7: Hu164-67wl (antibody, human IgG1, lambda)
# heavy: not shown
# light: ETVVTQEPSLTVSPGGTVTLTCRSSIGAVTTSNYANWVQQKPGQAFRGLIGGTSNRAPWTPARFSGSLLGGKAALTLSGVQPEDEAEYYCALWYSTHYVFGGGTKLTVLGQPKANPTVTLFPPSSEELQANKATLVCLISDFYPGAVTVAWKADGSPVKAGVETTKPSKQSNNKYAASSYLSLTPEQWKSHRSYSCQVTHEGSTVEKTVAPTEC
# B8: Hu164-57wl (antibody, human IgG1, lambda, V domains shown)
# VH: B4 VH with G44A, G49A, F80L
# VL: B2 VL
# Biological target: T1, Cynomolgus CTGF-Fc (fusion protein of cynomolgus CTGF coding region with Fc) (cynomolgus)
# T1 construct: also called cyno-CTGF-mFc protein; cyno-CTGF protein with Fc tag
# Test: ELISA, cyno-CTGF-Fc captured by anti-mFc
# Protocol: The binding activity of anti-monkey CTGF antibody to monkey CTGF protein was tested by ELISA assay. A 96-well microtiter plate was directly coated with anti-mFc protein, and then the cyno-CTGF protein with Fc tag was bound to the plate, and then the antibody was added. The signal strength upon the addition of the antibody was used to determine the binding activity of the antibody to cyno-CTGF. The specific experimental procedures were as follows:
# The anti-mFc Protein (Sigma, Cat No. M4280) was diluted with PBS, pH 7.4 (Shanghai Yuanpei, Cat No. B320) buffer to a concentration of 2 μg/ml, which was added into the 96-well microtiter plate (Corning, Cat No. CLS3590-100EA) at 50 μl/well, and incubated in an incubator at 37° C. for 2 hours. The liquid was removed, 250 μl/well blocking solution (5% skim milk (BD skim milk, Cat No.232100) diluted in PBS) was added, and incubated in an incubator at 37° C. for 3 hours or at 4° C. overnight (16-18 hours) for blocking. After the blocking was finished, the blocking solution was removed, the plate was washed for 3 times with PBST buffer (PBS containing 0.1% Tween-20, pH 7.4), 50 μl of 1 μg/ml cyno-CTGF-mFc protein was added into each well, incubated in an incubator at 37° C. for 1 hour, and then the plate was washed for 3 times with PBST buffer (PBS containing 0.1% Tween-20, pH 7.4). 50 μl/well of various concentrations of each of the test antibodies (antibodies purified from hybridoma or humanized antibodies) diluted with sample dilution solution were added, and incubated in an incubator at 37° C. for 1 hours. After the incubation was finished, the plate was washed for 3 times with PBST, 50 μl/well of HRP-labeled goat anti-mouse secondary antibody (Jackson Immuno Research, Cat No. 115-035-003) or goat anti-human secondary antibody (Jackson Immuno Research, Cat No. 109-035-003) diluted with sample dilution solution was added, and incubated at 37° C. for 1 hour. The plate was washed for 5 times with PBST, 50 μl/well of TMB chromogenic substrate (KPL, Cat No. 52-00-03) was added, incubated at room temperature for 5-10 min, and 50 μl/well of 1 M H₂SO₄ was added to stop the reaction. The absorbance value was read by a microplate reader (Molecular Devices, VERSA max) at a wavelength of 450 nm, and the data was analyzed with GraphPad Prism 5. The binding of CTGF antibody to cyno CTGF protein was calculated as EC50 value.
# T1 sequence (chain, as listed by the source limits assumed): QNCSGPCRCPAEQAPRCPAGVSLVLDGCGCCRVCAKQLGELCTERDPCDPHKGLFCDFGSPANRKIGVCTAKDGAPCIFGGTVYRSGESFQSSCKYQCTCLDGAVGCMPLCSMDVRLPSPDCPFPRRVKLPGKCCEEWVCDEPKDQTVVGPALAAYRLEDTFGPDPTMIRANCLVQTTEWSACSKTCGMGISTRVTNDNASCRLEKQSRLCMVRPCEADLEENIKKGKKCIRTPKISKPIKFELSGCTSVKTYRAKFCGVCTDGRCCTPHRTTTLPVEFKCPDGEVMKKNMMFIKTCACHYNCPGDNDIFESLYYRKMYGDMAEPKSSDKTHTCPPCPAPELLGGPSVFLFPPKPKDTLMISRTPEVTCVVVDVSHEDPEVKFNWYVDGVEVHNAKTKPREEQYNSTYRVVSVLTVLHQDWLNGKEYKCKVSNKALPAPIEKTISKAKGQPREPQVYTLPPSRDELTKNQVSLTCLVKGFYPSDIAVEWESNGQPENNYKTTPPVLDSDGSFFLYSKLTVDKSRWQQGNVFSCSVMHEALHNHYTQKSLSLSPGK
row,Binder,EC50 [nM]
1,B1,0.044
2,B2,0.038
3,B3,0.034
4,B4,0.036
5,B5,0.032
6,B6,0.062
7,B7,0.028
8,B8,0.029

# Biological target: T2, human CTGF (antigen of the Biacore assays) (human, UniProt P29279 27-349)
# T2 construct: also called antigen human CTGF; human CTGF protein
# T2 sequence (looked up): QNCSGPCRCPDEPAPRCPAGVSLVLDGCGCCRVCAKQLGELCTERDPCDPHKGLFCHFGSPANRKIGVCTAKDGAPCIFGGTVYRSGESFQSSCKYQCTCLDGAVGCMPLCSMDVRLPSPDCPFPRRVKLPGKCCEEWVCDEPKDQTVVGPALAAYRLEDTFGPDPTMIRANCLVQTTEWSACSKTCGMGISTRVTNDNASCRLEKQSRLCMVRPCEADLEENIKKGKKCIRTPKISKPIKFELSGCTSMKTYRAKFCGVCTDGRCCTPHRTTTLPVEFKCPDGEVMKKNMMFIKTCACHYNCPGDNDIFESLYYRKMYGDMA
# Test: Biacore, antibody captured on Protein A, CTGF in flow, 1:1 fit
# How it was run: (§1)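 Antibodies captured on a Protein A chip, with human or mouse CTGF flowed over in HBS-EP running buffer; association and dissociation recorded in real time. Surface regenerated with glycine-HCl pH 1.5 between cycles; kinetics fitted to a 1:1 model.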
Binder,Kd [nM],koff [s⁻¹],kon [M⁻¹ s⁻¹]
B1,0.713,0.0104,1.45e+07
B2,0.343,0.0176,5.15e+07
B3,0.194,0.0204,1.05e+08
B4,0.302,0.0116,3.84e+07
B5,0.322,0.028,8.71e+07
B6,0.969,0.033,3.41e+07
B7,0.0379,0.00196,5.17e+07
B8,0.0691,0.00294,4.26e+07

# Biological target: T3, mouse CTGF (antigen of the Biacore assay) (mouse, UniProt P29268 26-348)
# T3 construct: also called mouse CTGF protein
# T3 sequence (looked up): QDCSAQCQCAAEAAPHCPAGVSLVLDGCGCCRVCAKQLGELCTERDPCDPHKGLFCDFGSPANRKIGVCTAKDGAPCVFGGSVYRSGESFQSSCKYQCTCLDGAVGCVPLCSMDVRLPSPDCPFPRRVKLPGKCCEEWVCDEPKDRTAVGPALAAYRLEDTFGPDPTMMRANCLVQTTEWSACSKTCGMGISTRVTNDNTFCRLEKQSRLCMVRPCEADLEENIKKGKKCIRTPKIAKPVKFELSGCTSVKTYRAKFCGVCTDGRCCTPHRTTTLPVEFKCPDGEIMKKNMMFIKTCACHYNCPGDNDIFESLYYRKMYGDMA
# Test: Biacore, antibody captured on Protein A, mouse CTGF in flow, 1:1 fit
# How it was run: as §1
Binder,Kd [nM],koff [s⁻¹],kon [M⁻¹ s⁻¹]
B1,1.93,0.174,9.01e+07
B2,0.148,0.00883,5.98e+07
B3,0.084,0.0044,5.24e+07
B4,0.133,0.0076,5.7e+07
B5,0.126,0.00774,6.17e+07
B6,3.09,0.116,3.75e+07
B7,0.0184,0.00117,6.36e+07
B8,0.0322,0.00237,7.35e+07
